Measurements taken from the supplement of paper PMC9732359.
± gives the uncertainty stated by the source.

Experiment: protein stability index of a GFP-peptide fusion (yeast GPS) (PSI 1-4); higher = more stable; sorted into four equal gates, so the index is relative within each strain
Summary of the method: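 The protein stability index of a peptide was calculated by multiplying its read frequency in each gate by that gate's number and adding the products. The peptides were tiled 17-residue stretches of yeast proteins, fused downstream of GFP on a Cherry-expressing plasmid and carried in yeast as a pooled library. Mid-log cultures in leucine-free medium were sorted into four equal gates by GFP/Cherry ratio, and each gate's plasmids were PCR-amplified and Illumina-sequenced.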

Row | Sequence | protein stability index (doa10∆) | protein stability index (pdr5∆) | protein stability index (san1∆) | protein stability index (ubr1∆)
1 | PEREVLVRELYQWRDLI [RRP6] | 2.91 ± 0.057 | 2.78 ± 0.07 | 2.67 ± 0.066 | 2.58 ± 0.049
2 | SNQERCHDEGNDMLQRN [RRI1] | 3.33 ± 0.075 | 3.2 ± 0.11 | 3.35 ± 0.098 | 3.16 ± 0.076
3 | VFYRGMTMQVAVPRDEL [FAS1] | 1.62 ± 0.056 | 1.86 ± 0.066 | 2 ± 0.072 | 1.97 ± 0.12
4 | TVALREIRRFQKSTELL [HHT1] | 2.99 ± 0.098 | 2.91 ± 0.087 | 3.07 ± 0.068 | 3.02 ± 0.078
5 | CSKSIPKDKAIKRMAIR [RPS26A] | 2.8 ± 0.069 | 2.96 ± 0.073 | 2.73 ± 0.065 | 2.85 ± 0.046
6 | TSKSLVKRYRLAPTQLS [SIN4] | 2.63 ± 0.06 | 2.26 ± 0.051 | 2.11 ± 0.077 | 2.66 ± 0.037
7 | DVLKVNTLVRPNGTKKA [RPL25] | 2.75 ± 0.087 | 2.91 ± 0.08 | 2.89 ± 0.1 | 3.26 ± 0.067
8 | AKAPSGLDQSRIPFSER [FAS1] | 2.19 ± 0.081 | 2.19 ± 0.061 | 2.12 ± 0.25 | 2.56 ± 0.047
9 | IMNELYRMKGGRVTFIP [SMC3] | 2.12 ± 0.23 | – | – | 3.66 ± 0.16
10 | GTPLFTFGKKADVTSNI [YOR098C/NUP1] | 1.82 ± 0.05 | 1.92 ± 0.046 | 1.51 ± 0.11 | 2.18 ± 0.036
11 | PMETLLSGLSADKPFTR [YML031W/NDC1] | 2.91 ± 0.05 | 3.04 ± 0.05 | 2.94 ± 0.037 | 2.85 ± 0.034
12 | SSLHSPTSDEPVPESAG [SRB4] | 2.61 ± 0.065 | 3.16 ± 0.081 | 2.95 ± 0.063 | 3 ± 0.057
13 | KVVIPNLLCYYNLRSLN [RPN3] | 2.44 ± 0.19 | 2.54 ± 0.081 | 2.74 ± 0.13 | 2.65 ± 0.1
14 | EDILQGIFNLLNTLFNP [NUT1] | 2.23 ± 0.052 | 2.35 ± 0.055 | 2.41 ± 0.078 | 2.3 ± 0.075
15 | TESNELIQKLQNSANNN [IRR1] | 2.93 ± 0.11 | 3.02 ± 0.082 | 3.24 ± 0.053 | 3.09 ± 0.17
16 | ERLTNSLMMNGRNNGKK [RPS5] | 2.98 ± 0.099 | 3.02 ± 0.088 | 2.54 ± 0.071 | 2.62 ± 0.09
17 | RILAMCVKNHGQSSSIQ [YCS4] | 2.11 ± 0.055 | 1.79 ± 0.051 | 2.13 ± 0.057 | 1.94 ± 0.054
18 | RARVTKDLVEIKKEEGK [RPN5] | – | 3.42 ± 0.18 | 3.33 ± 0.17 | 3.59 ± 0.077
19 | VRGGNIEIMGILMGFTL [RRI1] | 2.32 ± 0.074 | 2.56 ± 0.092 | 2.31 ± 0.16 | 2.9 ± 0.096
20 | EGEPVNSPNYFVAKLAA [COR1] | 3.31 ± 0.16 | 3.16 ± 0.14 | 3.37 ± 0.13 | 3.14 ± 0.17
21 | QKYWESMRIQILRRQAI [GAL11] | 1.34 ± 0.091 | 2.25 ± 0.087 | 1.65 ± 0.16 | 2.1 ± 0.058
22 | LLRPSSKVIIKFLQVMQ [RPS22B] | 1.87 ± 0.069 | 1.61 ± 0.044 | 1.72 ± 0.13 | 1.82 ± 0.058
23 | LTYDRLEFATIRKGAND [PRE9] | – | – | 2.62 ± 0.24 | –
24 | QFVSKLVDNLNAEVVAG [BRR2] | 2.25 ± 0.042 | 2.25 ± 0.049 | 2.22 ± 0.05 | 2.19 ± 0.041
25 | GVQSNGDQFLRYVNLLG [PRE4] | 2.6 ± 0.073 | 2.51 ± 0.05 | 2.17 ± 0.063 | 2.31 ± 0.036
26 | LYEKDIVPSMTHLEIEP [RET1] | 2.68 ± 0.098 | 2.65 ± 0.089 | 2.73 ± 0.09 | 2.85 ± 0.053
27 | EQFKMVSMITDHNALPQ [POP1] | 3.04 ± 0.18 | 3.05 ± 0.11 | 2.28 ± 0.27 | 2.85 ± 0.13
